Assays:
[1] = target: BSA (bovine) (UniProt P02769); assay: ELISA; BSA as control antigen, neat eluted His-tagged protein, anti-pentaHis-HRP
[2] = target: human placental laminin (human); assay: HEK293-6E cell display flow cytometry; 500 nM laminin-biotin + streptavidin-Alexa Fluor 647; secondary only 5.57
[3] = target: human placental laminin (human); assay: HEK293-6E cell display flow cytometry; 500 nM laminin-biotin + streptavidin-Alexa Fluor 647; secondary only 1.77
[4] = target: human placental laminin (human); assay: HEK293-6E cell display flow cytometry; 500 nM laminin-biotin + streptavidin-Alexa Fluor 647; secondary only 6.09
[5] = target: human placental laminin (human); assay: HEK293-6E cell display flow cytometry; 500 nM laminin-biotin + streptavidin-Alexa Fluor 647; secondary only 4.17
[6] = target: human placental laminin (human); assay: HEK293-6E cell display flow cytometry; 500 nM laminin-biotin + streptavidin-Alexa Fluor 647; secondary only 4.11
[7] = target: human placental laminin (human); assay: HEK293-6E cell display flow cytometry; 500 nM laminin-biotin + streptavidin-Alexa Fluor 647; secondary only 3.28
[8] = target: human placental laminin (human); assay: bead flow cytometry; EVs on CD9+ capture beads, 5 µg/mL biotinylated laminin + neutravidin-PE; without competition
[9] = target: human placental laminin (human); assay: bead flow cytometry; EVs on CD9+ capture beads, 5 µg/mL biotinylated laminin + neutravidin-PE; with competition of 3-fold molar excess of unlabelled laminin (15 µg/mL)

BSA (bovine), sequence (P02769 25-607 limits assumed): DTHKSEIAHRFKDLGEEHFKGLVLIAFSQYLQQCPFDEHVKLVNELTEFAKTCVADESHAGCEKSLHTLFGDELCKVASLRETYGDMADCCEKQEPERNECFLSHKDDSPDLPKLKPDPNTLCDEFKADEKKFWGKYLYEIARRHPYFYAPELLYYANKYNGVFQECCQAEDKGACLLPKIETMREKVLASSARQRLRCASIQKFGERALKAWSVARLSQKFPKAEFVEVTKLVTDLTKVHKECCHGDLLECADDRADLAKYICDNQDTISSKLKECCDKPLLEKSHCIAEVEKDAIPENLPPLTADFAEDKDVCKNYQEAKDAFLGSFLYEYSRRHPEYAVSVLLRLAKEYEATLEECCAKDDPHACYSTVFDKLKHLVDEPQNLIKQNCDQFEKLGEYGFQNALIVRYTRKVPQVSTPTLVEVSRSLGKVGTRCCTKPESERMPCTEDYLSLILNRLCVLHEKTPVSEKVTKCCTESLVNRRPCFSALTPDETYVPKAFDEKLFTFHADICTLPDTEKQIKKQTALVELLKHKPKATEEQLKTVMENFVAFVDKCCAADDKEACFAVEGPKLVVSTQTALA

B1: laminin-binding CD81 LEL mutant L2A_LU1 (designed binder)
chain: FVNKDQIAKDVKQFYDQALRECCNTFDANNACAVVKTFHETLDCCGSSTTHSSTGCVLFFNLCPSGSNIISNLFKEDCHQKIDDLFSGK
A450/620 (average) [1]: 0.045

B2: laminin-binding CD81 LEL mutant L3A_LU1 (designed binder)
chain: FVNKDQIAKDVKQFYDQCLLWACSKRYKYNAKACVKTFHETLDCCGSSTMGNLTECVLIENLCPSGSNIISNLFKEDCHQKIDDLFSGK
A450/620 (average) [1]: 0.016

B3: laminin-binding CD81 LEL mutant L3B_LU1_2 (designed binder)
chain: FVNKDQIAKDVKQFYDQCLKYACKQGDWENAKACVKTFHETLDCCGSSTVANMTRCVLPANLCPSGSNIISNLFKEDCHQKIDDLFSGK
A450/620 (average) [1]: 0.021

B4: laminin-binding CD81 LEL mutant L2A_LU1_1 (designed binder)
chain: FVNKDQIAKDVKQFYDQALMICCHRHYANNACAVVKTFHETLDCCGSSTPSSTTPCVLQNNLCPSGSNIISNLFKEDCHQKIDDLFSGK
% antigen-positive cells [2]: 37.9%

B5: laminin-binding CD81 LEL mutant L2B_LU1_1 (designed binder)
chain: FVNKDQIAKDVKQFYDQALWKCCNLSQANNACAVVKTFHETLDCCGSSTYLCATYCVLWPNLCPSGSNIISNLFKEDCHQKIDDLFSGK
% antigen-positive cells [3]: 20.1%

B6: laminin-binding CD81 LEL mutant L2B_LU1 (designed binder)
chain: FVNKDQIAKDVKQFYDQALVFCCFGGHANNACAVVKTFHETLDCCGSSTHPYKTKCVLQRNLCPSGSNIISNLFKEDCHQKIDDLFSGK
% antigen-positive cells [4]: 54.2%

B7: laminin-binding CD81 LEL mutant 81_L13 (designed binder)
chain: FVNKDQIAKDVKQFYDQCLSWACNRKYEPNAKACVKTFHETLDCCGSSTKANYTHCVLEMNLCPSGSNIISNLFKEDCHQKIDDLFSGK
% antigen-positive cells [5]: 30.8%

B8: laminin-binding CD81 LEL mutant 81_L17 (designed binder)
chain: FVNKDQIAKDVKQFYDQCLRHACSGLSGRNAKACVKTFHETLDCCGSSTIKHKTLCVLIKNLCPSGSNIISNLFKEDCHQKIDDLFSGK
% antigen-positive cells [6]: 28.1%

B9: laminin-binding CD81 LEL mutant 81_L21 (designed binder)
chain: FVNKDQIAKDVKQFYDQALFICCFRRYANNACAVVKTFHETLDCCGSSTRNNETACVLAKNLCPSGSNIISNLFKEDCHQKIDDLFSGK
% antigen-positive cells [7]: 37.1%

B10: wild-type CD81-eGFP on recombinant EVs (protein, not shown: large carriers)
chain: MGVEGCTKCIKYLLFVFNFVFWLAGGVILGVALWLRHDPQTTNLLYLELGDKAPNTFYVGIYILIAVGAVMMFVGFLGCYGAIQESQCLLGTFFTCLVILFACEVAAGIWGFVNKDQIAKDVKQFYDQALQQAVVDDDANNAKAVVKTFHETLDCCGSSTLTALTTSVLKNNLCPSGSNIISNLFKEDCHQKIDDLFSGKLYLIGIAAIVVAVIMIFEMILSMVLCCGIRNSSVY
Mean 561 [8]: 20200
Mean 561 - BG [8]: 14800
ratio 488/561 [8]: 0.21
Mean 561 [9]: 23900
Mean 561 - BG [9]: 18700
ratio 488/561 [9]: 0.248

Reference: patent publication US20210395725A1
